The results in this text go back to US20080124340A1.

For assay [1], the target named is T1, soluble human erythropoietin receptor protein (huEpoR) (human) (UniProt P19235).
T1 sequence (looked up): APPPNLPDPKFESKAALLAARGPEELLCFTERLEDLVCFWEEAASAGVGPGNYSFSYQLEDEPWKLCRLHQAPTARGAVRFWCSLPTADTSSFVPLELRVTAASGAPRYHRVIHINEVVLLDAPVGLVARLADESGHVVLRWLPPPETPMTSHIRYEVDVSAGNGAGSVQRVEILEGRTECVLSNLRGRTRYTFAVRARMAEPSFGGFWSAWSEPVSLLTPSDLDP
Nature of the assay: SPR, Biacore T100; scFv-Fc captured by anti-human IgG Fc on CM5 chip, EpoR as analyte.

For assay [2], the target named is cynomolgus monkey EpoR (cynoEpoR) (cynomolgus monkey). The description is as above.
Target sequence in this assay (chain, as listed by the source): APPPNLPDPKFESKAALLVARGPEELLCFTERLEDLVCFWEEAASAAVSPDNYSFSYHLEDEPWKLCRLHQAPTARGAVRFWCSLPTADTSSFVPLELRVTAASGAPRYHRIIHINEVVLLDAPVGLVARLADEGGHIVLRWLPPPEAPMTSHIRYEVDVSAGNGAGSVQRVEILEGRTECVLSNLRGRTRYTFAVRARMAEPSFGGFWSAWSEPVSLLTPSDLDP
The target in assay [3] is T2, human erythropoietin receptor (huEpoR), cell surface expressed (human) (UniProt P19235).
T2 sequence (looked up): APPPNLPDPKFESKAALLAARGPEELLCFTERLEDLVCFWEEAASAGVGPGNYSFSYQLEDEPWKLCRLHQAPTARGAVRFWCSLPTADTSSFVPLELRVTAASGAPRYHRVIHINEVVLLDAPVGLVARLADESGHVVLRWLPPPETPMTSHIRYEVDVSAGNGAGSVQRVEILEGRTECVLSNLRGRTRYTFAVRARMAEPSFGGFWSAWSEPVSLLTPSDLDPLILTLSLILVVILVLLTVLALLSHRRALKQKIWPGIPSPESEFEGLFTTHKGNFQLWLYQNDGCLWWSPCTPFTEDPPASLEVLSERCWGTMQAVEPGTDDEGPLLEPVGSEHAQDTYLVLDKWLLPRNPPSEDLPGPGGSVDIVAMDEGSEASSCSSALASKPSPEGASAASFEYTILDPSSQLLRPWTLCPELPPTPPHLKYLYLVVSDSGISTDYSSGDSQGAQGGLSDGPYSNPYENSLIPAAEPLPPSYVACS
Description: cell-based or functional assay.

Assay [4] addresses cynomolgus monkey EpoR (cynoEpoR) (cynomolgus monkey). Description: SPR, Biacore T100; scFv-Fc captured on CM5 chip, EpoR as analyte; fit to steady-state model (off-rate too rapid); clone #318, cynomolgus EpoR, steady-state fit. In general terms: In SPR one partner is held on a chip, and binding of the other changes the refractive index at the surface.
Assay [5] shares this target. Nature of the assay: SPR, Biacore T100; scFv-Fc captured on CM5 chip, EpoR as analyte; fit to steady-state model (off-rate too rapid); clone #34, cynomolgus EpoR, steady-state fit.

B1: clone 330 scFv-Fc protein (Fc fusion, part only; not given: scFv linker and IgG1 Fc, not shown: a dimerising Fc or GST)
scFv, part: EVQLVESGGGLVQPGGSLRLSCAVSGFTFSKYWMTWVRQAPGKGLEWVANIKPDGSEKYYVESVKGRFTISRDNAKNSVYLQMNSVRAEDTAVYYCARVSRGGSFSDWGQGTLVTVSSQSALTQPPSASGSPGQSVTISCTGTSSDVGAYNYVSWYQQHPGKAPKLMIYEVARRPSGVPDRFSGSKSGNTASLTVSGLQAEDEADYYCSSYAGSNNFAVFGRGTKLTVL
As to B1, in assay [1], the dissociation constant Kd – broadly, the equilibrium constant for the complex coming apart – is 45.4 nM; the off-rate constant (koff) (in general, the rate constant with which the complex falls apart) was found to be 0.0373 s⁻¹; the on-rate constant (kon) (as a rule, the rate constant with which the complex forms) was determined as 822000 M⁻¹ s⁻¹. In assay [2], this molecule had a Kd of 890 nM, a koff of 0.0965 s⁻¹ and a kon of 108000 M⁻¹ s⁻¹. This molecule had an Average EC50, UT-7-luciferase assay in assay [3] of 0.0075 nM.

B2: clone 318 scFv-Fc protein (Fc fusion, part only; not given: scFv linker and IgG1 Fc, not shown: a dimerising Fc or GST)
scFv, part: QVQLVESGGGLVQPGGSLRLSCAVSGFTFSKYWMTWVRQAPGKGLEWVANIKPDGSEKYYVESVKGRFTISRDNAKNSVYLQMNSVRAEDTAVYYCARVSRGGSFSDWGQGTLVTVSSQSVLTQPPSASGSPGQSVTISCTGTSSDVGGYNYVSWYQQHPGRAPKLIIYEVSKRPSGVPDRFSGSKSGNTASLTVSGLQADDEADYYCNSYAGSIYVFGSGTKVTVL
In assay [1], B2 showed a dissociation constant Kd of 847 nM, a koff of 0.558 s⁻¹ and a kon of 659000 M⁻¹ s⁻¹. Besides, the Average EC50, UT-7-luciferase assay in assay [3] is 0.0154 nM. Moreover, the equilibrium dissociation constant (Kd) in assay [4] is 4.89 µM.

B3: clone 34 scFv-Fc protein (Fc fusion, part only; not given: Linker and IgG1 Fc, not shown: another chain or arm of the molecule; a dimerising Fc or GST; small tags and cut ends)
VH: QVQLQQSGAEVKKPGASVKVSCKASGYTFSGYYMHWVRQAPGQGLEWMGWINPNSGSTNYAQKFLGRVTMTRDTSISTAYMELSSLRSDDTAVYYCARGHSGDYFDYWGQGTLVTVSA
VL: EIVLTQSPSSLSASVGDRVTITCRASQSVSSWLAWYQQRPGQAPKLLIYAARLRGGGPSRFSGSGSGTEFTLTISSLQPEDFATYFCQQSYSTPISFGGGTKLEIK
In assay [1], B3 returned a Kd of 378 nM, a koff of 0.203 s⁻¹ and an association rate constant (kon) of 536000 M⁻¹ s⁻¹. This molecule showed an Average EC50, UT-7-luciferase assay in assay [3] of 0.11 nM. Besides, the equilibrium dissociation constant (Kd) in assay [5] came out at 5.81 µM.
